# Results reported in IntAct's records for PubMed 29892012.
# B1: TBC1 domain family member 22B (Homo sapiens), Q9NU19 (parent)
# chain: MAAENSKQFWKRSAKLPGSIQPVYGAQHPPLDPRLTKNFIKERSKVNTVPLKNKKASSFHEFARNTSDAWDIGDDEEEDFSSPSFQTLNSKVALATAAQVLENHSKLRVKPERSQSTTSDVPANYKVIKSSSDAQLSRNSSDTCLRNPLHKQQSLPLRPIIPLVARISDQNASGAPPMTVREKTRLEKFRQLLSSQNTDLDELRKCSWPGVPREVRPITWRLLSGYLPANTERRKLTLQRKREEYFGFIEQYYDSRNEEHHQDTYRQIHIDIPRTNPLIPLFQQPLVQEIFERILFIWAIRHPASGYVQGINDLVTPFFVVFLSEYVEEDVENFDVTNLSQDMLRSIEADSFWCMSKLLDGIQDNYTFAQPGIQKKVKALEELVSRIDEQVHNHFRRYEVEYLQFAFRWMNNLLMRELPLRCTIRLWDTYQSEPEGFSHFHLYVCAAFLIKWRKEILDEEDFQGLLMLLQNLPTIHWGNEEIGLLLAEAYRLKYMFADAPNHYRR
# partner: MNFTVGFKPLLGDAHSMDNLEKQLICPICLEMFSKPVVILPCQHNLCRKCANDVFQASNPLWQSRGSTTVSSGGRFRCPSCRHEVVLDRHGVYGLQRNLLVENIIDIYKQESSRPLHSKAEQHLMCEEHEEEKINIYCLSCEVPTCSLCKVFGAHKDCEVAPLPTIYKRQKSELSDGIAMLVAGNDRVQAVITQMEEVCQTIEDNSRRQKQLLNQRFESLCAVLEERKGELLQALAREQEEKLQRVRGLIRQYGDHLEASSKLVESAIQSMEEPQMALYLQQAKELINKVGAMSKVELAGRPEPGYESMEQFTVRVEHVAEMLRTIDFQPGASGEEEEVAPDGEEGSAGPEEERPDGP
# B2: Enhancer of mRNA-decapping protein 3 (Homo sapiens), Q96F86 (parent)
# chain: MATDWLGSIVSINCGDSLGVYQGRVSAVDQVSQTISLTRPFHNGVKCLVPEVTFRAGDITELKILEIPGPGDNQHFGDLHQTELGPSGAGCQVGINQNGTGKFVKKPASSSSAPQNIPKRTDVKSQDVAVSPQQQQCSKSYVDRHMESLSQSKSFRRRHNSWSSSSRHPNQATPKKSGLKNGQMKNKDDECFGDDIEEIPDTDFDFEGNLALFDKAAVFEEIDTYERRSGTRSRGIPNERPTRYRHDENILESEPIVYRRIIVPHNVSKEFCTDSGLVVPSISYELHKKLLSVAEKHGLTLERRLEMTGVCASQMALTLLGGPNRLNPKNVHQRPTVALLCGPHVKGAQGISCGRHLANHDVQVILFLPNFVKMLESITNELSLFSKTQGQQVSSLKDLPTSPVDLVINCLDCPENVFLRDQPWYKAAVAWANQNRAPVLSIDPPVHEVEQGIDAKWSLALGLPLPLGEHAGRIYLCDIGIPQQVFQEVGINYHSPFGCKFVIPLHSA
# partner: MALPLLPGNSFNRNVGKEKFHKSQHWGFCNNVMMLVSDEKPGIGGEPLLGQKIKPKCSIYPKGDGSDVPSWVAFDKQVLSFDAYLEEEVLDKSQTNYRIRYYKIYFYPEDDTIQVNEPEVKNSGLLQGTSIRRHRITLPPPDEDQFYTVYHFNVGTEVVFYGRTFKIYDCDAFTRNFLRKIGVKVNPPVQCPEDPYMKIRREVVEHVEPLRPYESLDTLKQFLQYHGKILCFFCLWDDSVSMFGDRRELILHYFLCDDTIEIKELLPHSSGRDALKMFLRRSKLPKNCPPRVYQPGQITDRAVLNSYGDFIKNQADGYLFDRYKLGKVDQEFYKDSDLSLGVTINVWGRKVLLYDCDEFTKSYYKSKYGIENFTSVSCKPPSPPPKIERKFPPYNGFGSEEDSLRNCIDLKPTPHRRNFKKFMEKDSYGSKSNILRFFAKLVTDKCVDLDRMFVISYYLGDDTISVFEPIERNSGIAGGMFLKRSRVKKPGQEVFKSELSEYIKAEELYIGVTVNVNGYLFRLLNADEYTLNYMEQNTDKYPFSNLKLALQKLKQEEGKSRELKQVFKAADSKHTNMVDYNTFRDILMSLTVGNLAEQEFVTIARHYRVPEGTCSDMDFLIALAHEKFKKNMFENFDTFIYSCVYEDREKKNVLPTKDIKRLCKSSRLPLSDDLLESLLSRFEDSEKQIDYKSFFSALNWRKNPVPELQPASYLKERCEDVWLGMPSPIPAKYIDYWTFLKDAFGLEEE
# B3: Ribonuclease inhibitor (Homo sapiens), P13489 (parent)
# chain: MSLDIQSLDIQCEELSDARWAELLPLLQQCQVVRLDDCGLTEARCKDISSALRVNPALAELNLRSNELGDVGVHCVLQGLQTPSCKIQKLSLQNCCLTGAGCGVLSSTLRTLPTLQELHLSDNLLGDAGLQLLCEGLLDPQCRLEKLQLEYCSLSAASCEPLASVLRAKPDFKELTVSNNDINEAGVRVLCQGLKDSPCQLEALKLESCGVTSDNCRDLCGIVASKASLRELALGSNKLGDVGMAELCPGLLHPSSRLRTLWIWECGITAKGCGDLCRVLRAKESLKELSLAGNELGDEGARLLCETLLEPGCQLESLWVKSCSFTAACCSHFSSVLAQNRFLLELQISNNRLEDAGVRELCQGLGQPGSVLRVLWLADCDVSDSSCSSLAATLLANHSLRELDLSNNCLGDAGILQLVESVRQPGCLLEQLVLYDIYWSEEMEDRLQALEKDKPSLRVIS
# B4: SOSS complex subunit C (Homo sapiens), Q9NRY2 (parent)
# chain: MAANSSGQGFQNKNRVAILAELDKEKRKLLMQNQSSTNHPGASIALSRPSLNKDFRDHAEQQHIAAQQKAALQHAHAHSSGYFITQDSAFGNLILPVLPRLDPE
# B5: Protein VAC14 homolog (Homo sapiens), Q08AM6 (parent)
# chain: MNPEKDFAPLTPNIVRALNDKLYEKRKVAALEIEKLVREFVAQNNTVQIKHVIQTLSQEFALSQHPHSRKGGLIGLAACSIALGKDSGLYLKELIEPVLTCFNDADSRLRYYACEALYNIVKVARGAVLPHFNVLFDGLSKLAADPDPNVKSGSELLDRLLKDIVTESNKFDLVSFIPLLRERIYSNNQYARQFIISWILVLESVPDINLLDYLPEILDGLFQILGDNGKEIRKMCEVVLGEFLKEIKKNPSSVKFAEMANILVIHCQTTDDLIQLTAMCWMREFIQLAGRVMLPYSSGILTAVLPCLAYDDRKKSIKEVANVCNQSLMKLVTPEDDELDELRPGQRQAEPTPDDALPKQEGTASGGPDGSCDSSFSSGISVFTAASTERAPVTLHLDGIVQVLNCHLSDTAIGMMTRIAVLKWLYHLYIKTPRKMFRHTDSLFPILLQTLSDESDEVILKDLEVLAEIASSPAGQTDDPGPLDGPDLQASHSELQVPTPGRAGLLNTSGTKGLECSPSTPTMNSYFYKFMINLLKRFSSERKLLEVRGPFIIRQLCLLLNAENIFHSMADILLREEDLKFASTMVHALNTILLTSTELFQLRNQLKDLKTLESQNLFCCLYRSWCHNPVTTVSLCFLTQNYRHAYDLIQKFGDLEVTVDFLAEVDKLVQLIECPIFTYLRLQLLDVKNNPYLIKALYGLLMLLPQSSAFQLLSHRLQCVPNPELLQTEDSLKAAPKSQKADSPSIDYAELLQHFEKVQNKHLEVRHQRSGRGDHLDRRVVL
# partner: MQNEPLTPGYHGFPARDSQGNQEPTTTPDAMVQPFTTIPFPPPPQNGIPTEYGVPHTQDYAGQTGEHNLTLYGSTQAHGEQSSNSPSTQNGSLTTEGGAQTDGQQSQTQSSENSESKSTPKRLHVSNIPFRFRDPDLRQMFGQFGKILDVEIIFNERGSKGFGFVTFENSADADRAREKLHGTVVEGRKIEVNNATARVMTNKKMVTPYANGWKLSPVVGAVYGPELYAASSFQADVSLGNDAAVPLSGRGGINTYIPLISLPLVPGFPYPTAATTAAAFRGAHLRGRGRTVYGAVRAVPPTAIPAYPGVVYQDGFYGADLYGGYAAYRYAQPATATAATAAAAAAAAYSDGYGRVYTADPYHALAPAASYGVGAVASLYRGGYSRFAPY
# B6: Ribosome assembly protein METTL17, mitochondrial (Homo sapiens), Q9H7H0 (parent)
# chain: MAAALKCLLTLGRWCPGLGVAPQARALAALVPGVTQVDNKSGFLQKRPHRQHPGILKLPHVRLPQALANGAQLLLLGSAGPTMENQVQTLTSYLWSRHLPVEPEELQRRARHLEKKFLENPDLSQTEEKLRGAVLHALRKTTYHWQELSYTEGLSLVYMAARLDGGFAAVSRAFHEIRARNPAFQPQTLMDFGSGTGSVTWAAHSIWGQSLREYMCVDRSAAMLVLAEKLLKGGSESGEPYIPGVFFRQFLPVSPKVQFDVVVSAFSLSELPSKADRTEVVQTLWRKTGHFLVLVENGTKAGHSLLMDARDLVLKGKEKSPLDPRPGFVFAPCPHELPCPQLTNLACSFSQAYHPIPFSWNKKPKEEKFSMVILARGSPEEAHRWPRITQPVLKRPRHVHCHLCCPDGHMQHAVLTARRHGRDLYRCARVSSWGDLLPVLTPSAFPPSTAQDPSES
# partner: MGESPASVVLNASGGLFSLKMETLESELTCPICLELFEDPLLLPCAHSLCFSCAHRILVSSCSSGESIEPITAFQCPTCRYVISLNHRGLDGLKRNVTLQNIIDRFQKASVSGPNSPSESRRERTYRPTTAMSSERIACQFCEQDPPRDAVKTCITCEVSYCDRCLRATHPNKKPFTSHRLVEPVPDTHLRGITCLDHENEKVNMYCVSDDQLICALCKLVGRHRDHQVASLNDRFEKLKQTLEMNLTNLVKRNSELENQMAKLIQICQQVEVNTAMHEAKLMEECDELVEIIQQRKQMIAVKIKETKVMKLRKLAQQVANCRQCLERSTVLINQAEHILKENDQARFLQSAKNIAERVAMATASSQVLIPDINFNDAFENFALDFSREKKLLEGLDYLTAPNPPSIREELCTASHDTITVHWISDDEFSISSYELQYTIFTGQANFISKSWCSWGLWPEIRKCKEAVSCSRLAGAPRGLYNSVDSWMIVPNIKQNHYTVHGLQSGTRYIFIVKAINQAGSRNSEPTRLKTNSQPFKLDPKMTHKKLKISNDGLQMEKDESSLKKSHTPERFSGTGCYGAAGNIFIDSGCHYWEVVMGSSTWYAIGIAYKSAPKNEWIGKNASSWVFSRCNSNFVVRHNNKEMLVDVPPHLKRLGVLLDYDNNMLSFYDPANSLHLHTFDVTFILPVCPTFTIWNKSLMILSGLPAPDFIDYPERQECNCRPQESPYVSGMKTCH
# Variants of: B1
# Conditions: with tri54_human TRIM54, Q9BYV2
row,Variant,effect of a mutation on the interaction
1,A349T,disrupting interaction strength

# Variants of: B2
# Conditions: with efhc2_human EFHC2, Q5JST6
row,Variant,effect of a mutation on the interaction
1,F213L,with no effect

# Variants of: B3
# Conditions: with sdcb1_human SDCBP
row,Variant,effect of a mutation on the interaction
1,V358M,with no effect

# Variants of: B4
# Conditions: with rbpms_human RBPMS
row,Variant,effect of a mutation on the interaction
1,K28T,with no effect

# Variants of: B5
# Conditions: with rfox2_human RBFOX2, O43251
row,Variant,effect of a mutation on the interaction
1,A127S,with no effect

# Variants of: B6
# Conditions: with trim1_human MID2, Q9UJV3
row,Variant,effect of a mutation on the interaction
1,R212H,disrupting interaction strength
